Reference: the DeepSol protein solubility set

Experiment: soluble on expression in E. coli; label from the status in PepcDB or PDB records

Sequence	soluble on expression in E. coli
MGSDKIHHHHHHMKFNEFLNNLSNYEPGKDIEVIAKEYGVKEVIKLASNENPFGTPPKAIECLRQNANKAHLYPDDSMIELKSTLAQKYKVQNENIIIGAGSDQVIEFAIHSKLNSKNAFLQAGVTFAMYEIYAKQCGAKCYKTQSITHNLDEFKKLYETHKDEIKLIFLCLPNNPLGECLDASEATEFIKGVNEDCLVVIDAAYNEFASFKDSKKHLEPCELIKEFDNVLYLGTFSKLYGLGGLRIGYGIANANIISAFYKLRAPFNVSNLALKAAVAAMDDDEFTEKTLENNFSQMELYKEFAKKHNIKIIDSYTNFITYFFDEKNSTDLSEKLLKKGIIIRNLKSYGLNAIRITIGTSYENEKFFTEFDKILR	not soluble
MSKLIITDNLEMLTEQGATRRRLLQAGLGACALLAMPAANAAYSRVYEKRVSLLNLHTGERVRTAYWERGKYIPEALRMIEKVLRDHRSGDIHRIDPRLLDLMQHLHHKTGNSKEFQVVSGYRSPATNAALSVQSHGVAKNSLHMQGKAIDIRLPGVPLHVLRRAAMSMHAGGVGYYPKSNFIHIDTGNVRYW	not soluble
MGSDKIHHHHHHMRRTALHSSTVGIRMRRALLRGLALSLTLGGAALGQSVGDSIFPSLGQRGLDVQHYDLHLTVPRPGEPHLSGDVTLTVGAREPLSRIVLDLLGPRVSAAQWNGQRVRWVQTAQKVEVTLPRPLRPGETGRLRLIYAGTPELSGDPGLPIRPGWQNEAGLSYSLSEPHGTRGFLPCNDHPSDPATFTVRVTVPASASAAASGLFTTQTERNGLKTLTFTQRVPVPTYALGLIVGPLERRTAPDVQLGTQTVHRRDIYAAGLPAGTTVPEGETARMLRVLSDWFGPYPDEVYGVALLPVRQLALETAGLTTMPATSNRERVRLHELAHQWFGDQVTLADWADTWLSEGFATYAELLWAESQGEDGQAMAADWYARLSVLPSRPLRATREEEIFDASAYFRGALALHALRLKVGDAAFGQFLHSYVKTFTGRPVSTTALLTLVKTQLGAEAEQTLRVWVEGRTLPPLPEPVGAPV	not soluble
SNAMSKITFKDIYIDGNKITEDSRKAIYLLPPQPLKYASNTWIYKTMPTMNQWLKDIEVQKKMHLNQSSYHLSFSFPANEKIDEVLLEKIRELGFQIGVLELYVIEAKALKELSRKRDVDIQLVSSNNINDYLHVYDAFARPFGDSYANMVKQHIYSSYNLDDIERLVAYVNHQPVGIVDIIMTDKTIEIDGFGVLEEFQHQGIGSEIQAYVGRMANERPVILVADGKDTAKDMYLRQGYVYQGFKYHILKENI	soluble
MGSDKIHHHHHHMSVSIIDRLQAIFQDVRVSEFMNPDVIYVTPDKTLLHVKEIMRIKRISGVPVVDDKKRVVGIVSLEDIIKALEGSYIKDSVEKRMTKNVVCLKETDTLQDAVKTFEKYGYGRFPVVDDEGKLVGIVTKHDIIYFLLAKLGIMYLHDKRMEEVLEKGTSLITGEVLEKGKADFVFHIDYFDVNMIGIGASKLKRFLLERGVDEELARRIAIATYEAEANVVIHSESDGYIYCFIDNEKITVRVEDRGKGIENLELAMREGYSTAPDHIRELGFGAGMGLPNMKRYSDKMVIISEVGKGVIVEMVFFRRDRGEDKGDSGKTGA	not soluble
MSLSFFAHFSPLSGHQKQAAHQILPHLFLGSAAAARSATWLQQNRITHIVCVHNAEVSPHELKRQLTISHPAGDTRATSHHHRQQTVAGQLVVHPDRCVYCCCYVQDTPQQVFLPVLFPVMDFIDNAIRDQSFRGGSPSGAPHGNVLVHCAKGISRSASLVICYLMFRRCWSYADSFTYIRRKRPIYPNVGFQASILTQLLETQELVENMFSQSEGHHHHHH	not soluble
FTGFFIGPMAEVTIPLVGLGVDGALLFAQRGVKVGDESIRQNGLDIPINLKYTIGLGSALGIYVAAGPDFYFNFSGDKNYGELGRLNKKNAQVGINVGAGVKLLRHLQVGANYNIPLNKTAEWKEADFSYKTKMWQISAAYIF	not soluble
MGSDKIHHHHHHMLLTRNEPFTAEKIQAKADILELVQFERFCRDNALWDAMETCFTKDSNVKISWFQGTGHGFIEASKKMTNPAPHKIYNTQVWIKNDRAVAIMQATIQTRTIINGVEMELNSDAKLVTRVERIDGKWYINAFEGVYEKDSLMPVVPSKNADVPAELLANFRKSYACLALSLTLNGYEIDNNLPGIDRPEQVTQFFKEADEWLLQ	not soluble
MVSETSEETLYCIGCGAAIQTTDPKAAGYTPNSALQKSLASEAQDLYCQRCFRLRHYNEIVPVGLTDDDFRHLLATIRDANALVVYVVDIFDLNGSIIPGLQRFVGDNPVLLVGNKEDVLPRQLRRTKLREWMNQQVRAQGIKPVDVALTSAKKGHSIDELLAMIEKYRRGRDVYVVGVTNVGKSTLINRIIANNTGLKDLITTSRFPGTTLDKIEIPLDDGHMMVDTPGIIHPEQMAHVLSGDDLKLVSPQREIRPKGFQLGNGQTLFLGGVARLDIVDTLKATGTVYVDNNLPLHRTRTENADNFYTKHVGELITPPTGDAVADFPPLVRHEFKVTEISDIVFEGLGWVTVAADTRVAAWAPKGVAVLTRPAMINKRLEHHHHHH	soluble
MADDAGILYENSLDLLKSMKNFAGNVGEGEKKHPYGKAANAARAYGSGMKNSAASFNHSGEQFDKLFEACNTFKDQINGNVLAKLISFKDVECKDVDTQMTQLKKAQKDYANKKSKIVPDQVQVDAAEATLKKLLEEAKATLEKFNKTGCELLTQISADMKTGFDAYCDAAASIN	not soluble
MGSDKIHHHHHHMAMEHVDVLIVGAGLSGIGAAYHLQKHCPGKTYAILEGREAIGGTWDLFRYPGIRSDSDMYTLGYSFKPWKAAKAIADGPSILDYVRETAREHDIDRHIRFQHLVKRASWSSETATWTVEAEHDGKPVTLTCRFLHMCSGYYRYSAGYTPDFAGTERFKGRIVHPQHWPEDLDYSGKKVVVIGSGATAVTLVPEMAKTAAHVTMLQRSPTYVVSRPAEDGIANWLRSKLPAMTAYGITRWKNVLFQLFFFNLARKKPEKVKERLLGMVRDHLGPGYDVETHFTPRYNPWDQRLCLVPDADLFDAIKSGAASVVTDHIETFTETGIQLKSGKTLDADVIVTATGLQLQLLSGMEVVVDGKVADLSQSMSYKGMMFSDVPNLASVFGYTNASWTLKADLTSEYVCRLLNHMDRTGADYCVPRLDGEVEAAPWLDFSSGYITRSIGHFPKQGTRKPWKVHQNYALDLMTLRMGKVEDGVMQFGRKTGATAKAKPEKALEPA	not soluble
SLRITRIRLYKTDLPYVDGSYGWGAGNAITVARASVVVIDTDAGLQGCGEFTPCGENYMIAHSEGVDAFARLAAPQLLGQDPRQVARMERLMDHLVQGHGYAKAPFDAAFWDILGQATGQPVWMLLGGKLCDGAPMYRVAPQRSEAETRAELARHRAAGYRQFQIKVGADWQSDIDRIRACLPLLEPGEKAMADANQGWRVDNAIRLARATRDLDYILEQPCRSYEECQQVRRVADQPMKLDECVTGLHMAQRIVADRGAEICCLKISNLGGLSKARRTRDFLIDNRMPVVAEDSWGGEIASAAVAHFAASTPEEFLINSTDLMNYNTRSTGLGGPTVHQGRLYASDTPGLGVTPDFNSLGAPVADWALP	not soluble
MGSDKIHHHHHHMRAIAIVLARSSSKRIKNKNIIDFFNKPMLAYPIEVALNSKLFEKVFISSDSMEYVNLAKNYGASFLNLRPKILADDRATTLEVMAYHMEELELKDEDIACCLYGASALLQEKHLKNAFETLNKNQNTDYVFTCSPFSASPYRSFSLENGVQMAFKEHSNTRTQDLKTLYHDAGLLYMGKAQAFKEMRPIFSQNSIALELSPLEVQDIAHFRRFRISQAQIQPFEKRMPVKILCDCFLTSGLGHVRRCEKILSFIEKLGVEASLYLHKQNNISAFLEGVGGNDFLITDSYCLNSKDFYLLKEKAKSLMVIEDTEHAKGFYPKNTKILNFTLNALKHYHHLSKDYQYYLGVGFYPVDARFIYDRPINTENKEVLITLGGSEQKTLKEIVKILENKNVNLHIISPYTPKNPPKNTHYYSPLNPLEFSSLMKSCACAISAAGQTLYELALSQTPSLILPIASNQIIQSKEFESLGIFKQTSLKTLAKDFENLQIQKNQAWAKNLVFGDKLEGALREFLEI	not soluble
ARIRAPQEATVKEVHDAPAVRGSIIANMLQEHDNPFTLYPYDTNYLIYTQTSDLNKEAIASYDWAENARKDEVKFQLSLAFPLWRGILGPNSVLGASYTQKSWWQLSNSEESSPFRETNYEPQLFLGFATDYRFAGWTLRDVEMGYNHDSNGRSDPTSRSWNRLYTRLMAENGNWLVEVKPWYVVGNTDDNPDITKYMGYYQLKIGYHLGDAVLSAKGQYNWNTGYGGAELGLSYPITKHVRLYTQVYSGYGESLIDYNFNQTRVGVGVMLNDLF	soluble
